± gives the uncertainty stated by the source.

Among the data in the Human Domainome abundance scans (Beltran et al. 2025) are abundance fitness values, retold here.

B1: Neutrophil cytosol factor 2, residues 456 to 514; numbered along this chain, P19878 (parent)
chain: LKKGSQVEALFSYEATQPEDLEFQEGDIILVLSKVNEEWLEGECKGKVGIFPKVFVEDC

In the data set the parent is B1. The data set can be described thus: abundance fitness (aPCA) (normalised: wild type 0, dead -1); higher = more abundant; growth selection in yeast, the domain comes from the species named. As to conditions: Homo sapiens.
Turning to LKKGSQVEALFSYEATQPEDLEFQEGDISLVLSKVNEEWLEGECKGKVGIFPKVFVEDC [I29S], the abundance fitness is -0.374 ± 0.11.
The same measure for LKKGSQVEALFSYEATQPEDLEFQEGDIPLVLSKVNEEWLEGECKGKVGIFPKVFVEDC [I29P]: 0.271 ± 0.19; for LKKGSQVEALFSYEATQPEDLEFQEGDITLVLSKVNEEWLEGECKGKVGIFPKVFVEDC [I29T]: -0.497 ± 0.16.
On to LKKGSQVEALFSYEATQPEDLEFQEGDIRLVLSKVNEEWLEGECKGKVGIFPKVFVEDC [I29R], for which the abundance fitness is -0.427 ± 0.13.
Turning to LKKGSQVEALFSYEATQPEDLEFQEGDIQLVLSKVNEEWLEGECKGKVGIFPKVFVEDC [I29Q], the abundance fitness was -0.783 ± 0.38.
Take LKKGSQVEALFSYEATQPEDLEFQEGDIVLVLSKVNEEWLEGECKGKVGIFPKVFVEDC [I29V]: the abundance fitness was -0.795 ± 0.17.
As to LKKGSQVEALFSYEATQPEDLEFQEGDIWLVLSKVNEEWLEGECKGKVGIFPKVFVEDC [I29W], the abundance fitness worked out at 0.005 ± 0.16.
Regarding LKKGSQVEALFSYEATQPEDLEFQEGDIILVHSKVNEEWLEGECKGKVGIFPKVFVEDC [L32H], the abundance fitness turned out to be 0.166 ± 0.1.
For the variant LKKGSQVEALFSYEATQPEDLEFQEGDIILVKSKVNEEWLEGECKGKVGIFPKVFVEDC [L32K], the abundance fitness turned out to be 0.194 ± 0.15.
With LKKGSQVEALFSYEATQPEDLEFQEGDIILVSSKVNEEWLEGECKGKVGIFPKVFVEDC [L32S], the abundance fitness was -0.069 ± 0.079.
For the variant LKKGSQVEALFSYEATQPEDLEFQEGDIILVESKVNEEWLEGECKGKVGIFPKVFVEDC [L32E], the abundance fitness was -0.299 ± 0.19.
The same measure for LKKGSQVEALFSYEATQPEDLEFQEGDIILVISKVNEEWLEGECKGKVGIFPKVFVEDC [L32I]: -0.06 ± 0.11.
Regarding LKKGSQVEALFSYEATQPEDLEFQEGDIILVFSKVNEEWLEGECKGKVGIFPKVFVEDC [L32F], the abundance fitness is -0.118 ± 0.12.
The same measure for LKKGSQVEALFSYEATQPEDLEFQEGDIILVVSKVNEEWLEGECKGKVGIFPKVFVEDC [L32V]: -0.297 ± 0.1.
For LKKGSQVEALFSYEATQPEDLEFQEGDIILVQSKVNEEWLEGECKGKVGIFPKVFVEDC [L32Q], the abundance fitness was -0.143 ± 0.34.
The same measure for LKKGSQVEALFSYEATQPEDLEFQEGDIILVYSKVNEEWLEGECKGKVGIFPKVFVEDC [L32Y]: -0.249 ± 0.13; for LKKGSQVEALFSYEATQPEDLEFQEGDIILVPSKVNEEWLEGECKGKVGIFPKVFVEDC [L32P]: -0.146 ± 0.15.
Take LKKGSQVEALFSYEATQPEDLEFQEGDIILVDSKVNEEWLEGECKGKVGIFPKVFVEDC [L32D]: the abundance fitness was -0.054 ± 0.095.
For LKKGSQVEALFSYEATQPEDLEFQEGDIILVNSKVNEEWLEGECKGKVGIFPKVFVEDC [L32N], the abundance fitness was 0.304 ± 0.095.
The same measure for LKKGSQVEALFSYEATQPEDLEFQEGDIILVMSKVNEEWLEGECKGKVGIFPKVFVEDC [L32M]: -0.532 ± 0.49; for LKKGSQVEALFSYEATQPEDLEFQEGDIILVRSKVNEEWLEGECKGKVGIFPKVFVEDC [L32R]: 0.564 ± 0.079.
The same measure for LKKGSQVEALFSYEATQPEDLEFQEGDIILVTSKVNEEWLEGECKGKVGIFPKVFVEDC [L32T]: 0.325 ± 0.088.
The same measure for LKKGSQVEALFSYEATQPEDLEFQEGDIILVASKVNEEWLEGECKGKVGIFPKVFVEDC [L32A]: -0.297 ± 0.14.
LKKGSQVEALFSYEATQPEDLEFQEGDIILVCSKVNEEWLEGECKGKVGIFPKVFVEDC [L32C]: the abundance fitness is -0.428 ± 0.13.
Take LKKGSQVEALFSYEATQPEDLEFQEGDIIMVLSKVNEEWLEGECKGKVGIFPKVFVEDC [L30M]: the abundance fitness turned out to be 0.08 ± 0.17.
The same measure for LKKGSQVEALFSYEATQPEDLEFQEGDIIDVLSKVNEEWLEGECKGKVGIFPKVFVEDC [L30D]: 0.169 ± 0.11.
The same measure for LKKGSQVEALFSYEATQPEDLEFQEGDIIKVLSKVNEEWLEGECKGKVGIFPKVFVEDC [L30K]: 0.491 ± 0.17; for LKKGSQVEALFSYEATQPEDLEFQEGDIIRVLSKVNEEWLEGECKGKVGIFPKVFVEDC [L30R]: 0.552 ± 0.07; for LKKGSQVEALFSYEATQPEDLEFQEGDIIYVLSKVNEEWLEGECKGKVGIFPKVFVEDC [L30Y]: 0.079 ± 0.094.
Turning to LKKGSQVEALFSYEATQPEDLEFQEGDIIGVLSKVNEEWLEGECKGKVGIFPKVFVEDC [L30G], the abundance fitness was -0.2 ± 0.097.
Consider LKKGSQVEALFSYEATQPEDLEFQEGDIIPVLSKVNEEWLEGECKGKVGIFPKVFVEDC [L30P], for which the abundance fitness is 0.04 ± 0.23.
Regarding LKKGSQVEALFSYEATQPEDLEFQEGDIIHVLSKVNEEWLEGECKGKVGIFPKVFVEDC [L30H], the abundance fitness stood at 0.448 ± 0.12.
Regarding LKKGSQVEALFSYEATQPEDLEFQEGDIIAVLSKVNEEWLEGECKGKVGIFPKVFVEDC [L30A], the abundance fitness is -0.284 ± 0.13.
The same measure for LKKGSQVEALFSYEATQPEDLEFQEGDIIFVLSKVNEEWLEGECKGKVGIFPKVFVEDC [L30F]: -0.147 ± 0.1; for LKKGSQVEALFSYEATQPEDLEFQEGDIIWVLSKVNEEWLEGECKGKVGIFPKVFVEDC [L30W]: -0.513 ± 0.33.
The value for LKKGSQVEALFSYEATQPEDLEFQEGDIITVLSKVNEEWLEGECKGKVGIFPKVFVEDC [L30T] was 1.05 ± 0.089.
The same measure for LKKGSQVEALFSYEATQPEDLEFQEGDIIEVLSKVNEEWLEGECKGKVGIFPKVFVEDC [L30E]: 0.042 ± 0.31; for LKKGSQVEALFSYEATQPEDLEFQEGDIIIVLSKVNEEWLEGECKGKVGIFPKVFVEDC [L30I]: 0.032 ± 0.1; for LKKGSQVEALFSYEATQPEDLEFQEGDIISVLSKVNEEWLEGECKGKVGIFPKVFVEDC [L30S]: 0.469 ± 0.068.
Consider LKKGSQVEALFSYEATQPEDLEFQEGDIINVLSKVNEEWLEGECKGKVGIFPKVFVEDC [L30N], for which the abundance fitness stood at 0.756 ± 0.083.
Take LKKGSQVEALFSYEATQPEDLEFQEGDIIVVLSKVNEEWLEGECKGKVGIFPKVFVEDC [L30V]: the abundance fitness was -0.07 ± 0.095.
The value for LKKGSQVEALFSYEATQPEDLEFQEGDIIQVLSKVNEEWLEGECKGKVGIFPKVFVEDC [L30Q] was 0.5 ± 0.16; that for LKKGSQVEALFSYEATQPEDLEFQEGDIILVLWKVNEEWLEGECKGKVGIFPKVFVEDC [S33W] was -0.366 ± 0.2; that for LKKGSQVEALFSYEATQPEDLEFQEGDIILVLEKVNEEWLEGECKGKVGIFPKVFVEDC [S33E] was -0.786 ± 0.28.
As to LKKGSQVEALFSYEATQPEDLEFQEGDIILVLPKVNEEWLEGECKGKVGIFPKVFVEDC [S33P], the abundance fitness is -0.554 ± 0.2.
